Data on 41 variants can be found in the RNAGym collection of RNA variant scans (doi:10.7554/elife.90254).

To fix the notation:
B1: OR4K15 (parent)
chain: GUUAACGGUCAUAGGCCAUGGAAACUAGGAGCACCAUUUCGCUGCCAGUGAAGAAAUGAACAAAGAAAAUCUGGGCCAGGCAGGCAUCAAAAGAAAUAGUCUUGCGCUCAACCAGAAAGUCUGUAAUCAUUUUAAGGGUA

The series covers variants of B1. Briefly: self-cleavage, relative activity (ratio to wild type); higher = more cleavage; in vitro, sequencing; the parent is a self-cleaving ribozyme.
On to GUUAACGGUCAUAGGCCGUGGAAACUAGGAGCACCAUUUCGCUGCCAGUGAAGAAAUGAACAAAGAAAAUCUGGGCCAGGCAGGCAUCAAAAGAAAUGGUCUUGCGCUCAACCAGAAAGUCUGUAAUCAUUUUAAGGGUA [A18G A98G], for which the self-cleavage is 0.59.
To GUUAACGGUCAUAGGCCGUGGAAACUAGGAGCACCAUUUCGCUGCCAGUGAAGAAAUGAACAAAGAAAAUCUGGGCCAGGCAGGCCUCAAAAGAAAUAGUCUUGCGCUCAACCAGAAAGUCUGUAAUCAUUUUAAGGGUA [A18G A86C] belongs 1.68; to GUUAACGGUCAUAGGCCGUGGAAACUAGGAGCACCAUUUCGCUGCCAGUGAAGAAAUGAACAAAGAAAAUCUGGGCCAGGCAGGCAUCAAAAGAAAUAGUCUUGCGCUCAACCAGAGAGUCUGUAAUCAUUUUAAGGGUA [A18G A117G], 0.59; to GUUAACGGUCAUAGGCCGUGGAAACUAGGAGCACCAUGUCGCUGCCAGUGAAGAAAUGAACAAAGAAAAUCUGGGCCAGGCAGGCAUCAAAAGAAAUAGUCUUGCGCUCAACCAGAAAGUCUGUAAUCAUUUUAAGGGUA [A18G U38G], 1.56.
To GUUAACGGUCAUAGGCCGUGGAAACUAGGAGCACCAUUUCGCCGCCAGUGAAGAAAUGAACAAAGAAAAUCUGGGCCAGGCAGGCAUCAAAAGAAAUAGUCUUGCGCUCAACCAGAAAGUCUGUAAUCAUUUUAAGGGUA [A18G U43C] belongs 1.52; to GUUAACGGUCAUAGGCCGUGGAAACUAGGAGCACCAUUUCGCAGCCAGUGAAGAAAUGAACAAAGAAAAUCUGGGCCAGGCAGGCAUCAAAAGAAAUAGUCUUGCGCUCAACCAGAAAGUCUGUAAUCAUUUUAAGGGUA [A18G U43A], 1.23.
To GUUAACGGUCAUAGGCCGUGGAAACUAGGAGCACCACUUCGCUGCCAGUGAAGAAAUGAACAAAGAAAAUCUGGGCCAGGCAGGCAUCAAAAGAAAUAGUCUUGCGCUCAACCAGAAAGUCUGUAAUCAUUUUAAGGGUA [A18G U37C] belongs 1.04; to GUUAACGGUCAUAGGCCGUGGAAACUAGGAGCACCAUUUCGCUGCCAGUGAAGAAAUGAACAAAGAAAAUCUGGGCCAGGCAGGCAUCAAAAGAAAUAGUCUUGUGCUCAACCAGAAAGUCUGUAAUCAUUUUAAGGGUA [A18G C105U], 0.29.
For the variant GUUAACGGUCAUAGGCCGUGGAAACUAGGAGCACCAUUUCGCUGCCAGUGAAGAAAUGAACAAAGAAAAUCUGGGCCAGGCAGGCAUCAAAAGAAAUAGUCUUGCGCUCAACCUGAAAGUCUGUAAUCAUUUUAAGGGUA [A18G A114U], the self-cleavage turned out to be 0.14.
The result for GUUAACGGUCAUAGGCCGUGGAAACUAGGAGCACCAUUUCGCUGCCAGUGAAGAAAUGAACAAAGAAAAUCUGGGCCAGGCAGGCAUCAAAAGAAAUAGUCUUGCGCUCAACCGGAAAGUCUGUAAUCAUUUUAAGGGUA [A18G A114G] reads 0.77; that for GUUAACGGUCAUAGGCCGUGGAAACUAGGAGCACCAUUUCGCUGCCAGUGAAGAAAUGAACAAAGAAAAUCUGGGCCAGGCAGGCAUCAAAAGAAAUAGUUUUGCGCUCAACCAGAAAGUCUGUAAUCAUUUUAAGGGUA [A18G C101U], 0.85; that for GUUAACGGUCAUAGGCCGUGGAAACUAGGAGCACCAUUUCGCUGCCAGUGAAGAAAUGAACAAAGAAAAUCUGGGCCAGGCAGGCAUCAAUAGAAAUAGUCUUGCGCUCAACCAGAAAGUCUGUAAUCAUUUUAAGGGUA [A18G A91U], 1.94.
To GUUAACGGUCAUAGGCCGUGGAAACUAGGAGCACCAUUUCGCUGCCAGUGAAGAAAUGAACAAAGAAAAUCUGGGCCAGGCAGGCAUCAAAAGAAAUAGUCUUGCGCUCAACCAGAAAGUCUGUAAUCAUUUUUAGGGUA [A18G A134U] belongs 1.88; to GUUAACGGUCAUAGGCCGUGGAAACUAGGAGCACCAUUUCGCUGCCAGUGAAGAAAUGAACAAAGAAAAUCUGGGCCAGGCAGGCAUCAAAAGAAAUAGUCUUGCGCUCAACCAGAAAGUCUGUAAUCAUUUUAAGGAUA [A18G G138A], 1.27; to GUUAACGGUCAUAGGCCGUGGAAACUAGGAGCACCAUUUCGCUGCCAGUGAAGAAAUGAACAAAGAAAAUCUGGGCCGGGCAGGCAUCAAAAGAAAUAGUCUUGCGCUCAACCAGAAAGUCUGUAAUCAUUUUAAGGGUA [A18G A78G], 0.33.
As for GUUAACGGUCAUAGGCCGUGGAAACUAGGAGCACCAUUCCGCUGCCAGUGAAGAAAUGAACAAAGAAAAUCUGGGCCAGGCAGGCAUCAAAAGAAAUAGUCUUGCGCUCAACCAGAAAGUCUGUAAUCAUUUUAAGGGUA [A18G U39C], the self-cleavage was determined as 1.77.
The result for GUUAACGGUCAUAGGCCGUGGAAACUAGGAGCACCAUUACGCUGCCAGUGAAGAAAUGAACAAAGAAAAUCUGGGCCAGGCAGGCAUCAAAAGAAAUAGUCUUGCGCUCAACCAGAAAGUCUGUAAUCAUUUUAAGGGUA [A18G U39A] reads 1.96; that for GUUAACGGUCAUAGGCCGUGGAAACUAGGAGCACCAUUUCGCUGCCAGUGAAGAAAUGAACAAAGAAAAUCUGGGCCAGGCAGGCAUCAAAAGAAAUAGUCUUACGCUCAACCAGAAAGUCUGUAAUCAUUUUAAGGGUA [A18G G104A], 0.02.
On to GUUAACGGUCAUAGGCCGUGGAAACUAGGAGCACCAUUUCGCUGCCAGUGAAGAAAUGAACAAAGAAAAUCUGGGCCAGGCAGGCAUCGAAAGAAAUAGUCUUGCGCUCAACCAGAAAGUCUGUAAUCAUUUUAAGGGUA [A18G A89G], for which the self-cleavage was 2.05.
To GUUAACGGUCAUAGGCCGUGGAAACUAGGAGCACCAUUUCGCUGCCAGUGAAGAAAUGAACAAAGAAAAUUUGGGCCAGGCAGGCAUCAAAAGAAAUAGUCUUGCGCUCAACCAGAAAGUCUGUAAUCAUUUUAAGGGUA [A18G C71U] belongs 0.22.
The result for GUUAACGGUCAUAGGCCGUGGAAACUAGGAGCACCAUUUCGCUGCCAGUGAAGAAAUGAACAAAGAAAAUCUGGGCCAGGCAGGCAUCAAAAGAAAUAGUCUUGCGCUCAACCAGAAUGUCUGUAAUCAUUUUAAGGGUA [A18G A118U] reads 0.64; that for GUUAACGGUCAUAGGCCGUGGAAACUAGGAGCACCAUUUCGCUGCCAGUGAAGAAAUGAACAAAGAAAAUCUGGGCCAGGCAGGCAUCAAAAGAAAUAGUCUUGCGCUCAACCAGAAAGUCUGUAAUCAUUUUAAGGGUG [A18G A140G], 0.55; that for GUUAACGGUCAUAGGCCGUGGAAACUAGGAGCACCAUUUCGCUACCAGUGAAGAAAUGAACAAAGAAAAUCUGGGCCAGGCAGGCAUCAAAAGAAAUAGUCUUGCGCUCAACCAGAAAGUCUGUAAUCAUUUUAAGGGUA [A18G G44A], 1.66.
The result for GUUAACGGUCAUAGGCCGUGGAAACAAGGAGCACCAUUUCGCUGCCAGUGAAGAAAUGAACAAAGAAAAUCUGGGCCAGGCAGGCAUCAAAAGAAAUAGUCUUGCGCUCAACCAGAAAGUCUGUAAUCAUUUUAAGGGUA [A18G U26A] reads 1.1; that for GUUAACGGUCAUAGGCCGUGGAAACUAGGAGCACCAUUUCGCUGCCAAUGAAGAAAUGAACAAAGAAAAUCUGGGCCAGGCAGGCAUCAAAAGAAAUAGUCUUGCGCUCAACCAGAAAGUCUGUAAUCAUUUUAAGGGUA [A18G G48A], 1.81; that for GUUAACGGUCAUAGGCCGUGGAAACUAGGAGCACCAUUUCGCUGCCAGUGAAGAAAUGAACAAAGAAAAUCUGGGCCAGGCAGGCAUCAAAAGAGAUAGUCUUGCGCUCAACCAGAAAGUCUGUAAUCAUUUUAAGGGUA [A18G A95G], 1.38.
Regarding GUUAACGGUCAUAGGCCGUGGAAACUAGGAGCACCAUUUCGCUGCCAGUGAAGAAAUGAACAAAGAAAGUCUGGGCCAGGCAGGCAUCAAAAGAAAUAGUCUUGCGCUCAACCAGAAAGUCUGUAAUCAUUUUAAGGGUA [A18G A69G], the self-cleavage came to 1.9.
The result for GUUAACGGUCAUAGGCCGUGGAAACUAGGAGCACCAUUUCGCUGCCAGUGAAGAAAUGAACAAAGAAAAUCUGGGCCAGGCAGGCAUCAAAAGAAAUAGUCUUGCGCUCUACCAGAAAGUCUGUAAUCAUUUUAAGGGUA [A18G A110U] reads 1.32; that for GUUAACGGUCAUAGGCCGUGGAAACUAGGAGCACCAUUUCGCUGCCAGUGAAGAAAUGAACAAAGAAAAUCUGGGCCAGGCAGGCAUCAAAAGAAAUAGUCUUGCGCUCAACCAGAAAGUCUGUAUUCAUUUUAAGGGUA [A18G A126U], 0.44.
To GUUAACGGUCAUAGGCCGUGGAAACUAGGAGCACCAUUUCGCUGCCAGUGAAGAAAUGAACAAAGAAAAUCUGGGCCAGGCAGGCAUCAAAAGAAAUAGUCUUGCGCUCAACCAGAAAGUCUGUACUCAUUUUAAGGGUA [A18G A126C] belongs 0.48; to GUUAACGGUCAUAGGCCGCGGAAACUAGGAGCACCAUUUCGCUGCCAGUGAAGAAAUGAACAAAGAAAAUCUGGGCCAGGCAGGCAUCAAAAGAAAUAGUCUUGCGCUCAACCAGAAAGUCUGUAAUCAUUUUAAGGGUA [A18G U19C], 1.06.
Turning to GUUAACGGUCAUAGGCCGAGGAAACUAGGAGCACCAUUUCGCUGCCAGUGAAGAAAUGAACAAAGAAAAUCUGGGCCAGGCAGGCAUCAAAAGAAAUAGUCUUGCGCUCAACCAGAAAGUCUGUAAUCAUUUUAAGGGUA [A18G U19A], the self-cleavage is 1.57.
Consider GUUAACGGUCAUAGGCCGUGGAAACUAGGAGCACCAUUUCGCUGCCAGAGAAGAAAUGAACAAAGAAAAUCUGGGCCAGGCAGGCAUCAAAAGAAAUAGUCUUGCGCUCAACCAGAAAGUCUGUAAUCAUUUUAAGGGUA [A18G U49A], for which the self-cleavage worked out at 1.54.
The result for GUUAACGGUCAUAGGCCGUGGAAACUAGGAGCACCAUUUCGCUGCCAGUGAAGAAAUGAACAAAGAAAAUCUGGGCCAGGCAGGCAUCAAAAGAAAUAGUCUUGCGCUCAACCAGAAAGUCUGUAAUCGUUUUAAGGGUA [A18G A129G] reads 1.25; that for GUUAACGGUCAUAGGCCGUGGAAACUAGGAGCACCAUUUCGCUGCCAGUGAAGAAAUGAACAAAGAAAAUCUGGGCCAGGCAGGCAUCAAAGGAAAUAGUCUUGCGCUCAACCAGAAAGUCUGUAAUCAUUUUAAGGGUA [A18G A92G], 1.3; that for GUUAACGGUCAUAGGCCGUGGAAACUAGGAGCACCAUUUCACUGCCAGUGAAGAAAUGAACAAAGAAAAUCUGGGCCAGGCAGGCAUCAAAAGAAAUAGUCUUGCGCUCAACCAGAAAGUCUGUAAUCAUUUUAAGGGUA [A18G G41A], 1.53.
To GUUAACGGUCAUAGGCCGUGGAAACUAGGAGCACCAUUUCGCUGCCAGUGAAGAAAUGAACAAAGAAAAUCUGGGCCAGGCAGGCAUCAAAAGUAAUAGUCUUGCGCUCAACCAGAAAGUCUGUAAUCAUUUUAAGGGUA [A18G A94U] belongs 1.4.
To GUUAACGGUCAUAGGCCGUGGAAACUAGGAGCACCAUUUCGCUGCCAGUGAAGAAAUGAACAAAGAAAAUCUGGGCCAAGCAGGCAUCAAAAGAAAUAGUCUUGCGCUCAACCAGAAAGUCUGUAAUCAUUUUAAGGGUA [A18G G79A] belongs 0.24; to GUUAACGGUCAUAGGCCGUGGAAACUAGGAGCACCAUUUCGCUGCCAGUAAAGAAAUGAACAAAGAAAAUCUGGGCCAGGCAGGCAUCAAAAGAAAUAGUCUUGCGCUCAACCAGAAAGUCUGUAAUCAUUUUAAGGGUA [A18G G50A], 0.74; to GUUAACGGUCAUAGGCCGUGGAAACUAGGAGCACCAUUUCGCUGCCAGUGAAGAAAUGAACAAAGAAAAUCUGGGCCAGGCAGGCAUCAGAAGAAAUAGUCUUGCGCUCAACCAGAAAGUCUGUAAUCAUUUUAAGGGUA [A18G A90G], 1.36.
For the variant GUUAACGGUCAUAGGCCGUGGAAACUAGGAGCACCAUUUCGCUGCCAGUGAAGAAAUGAACAAAGAAAAUCUGGGCCAGGCAGGCAUCAUAAGAAAUAGUCUUGCGCUCAACCAGAAAGUCUGUAAUCAUUUUAAGGGUA [A18G A90U], the self-cleavage was found to be 2.38.
